Assay results from publication PMC10282093, “Structural basis of α1A-adrenergic receptor activation and recognition by an extracellular nanobody” (Nature Communications, 2023).
“And” between values parts separate entries of the source, which are not always exact repeats. Equal entries are not always repeated. One block for each molecule: values may come before it.

Key:
[1] = biological target: T1, purified α1AAR fused at the C-terminus to an enhanced green fluorescent protein (Homo sapiens, UniProt P35348, N7Q | N13Q | N22Q); assay: flow cytometry on cells; on-yeast titration as a1, in the presence of 500 μM noradrenaline; settings: one partner purified
T1 construct: α1A-adrenergic receptor, human; Used in the on-yeast titration with or without 500 μM ligand (oxymetazoline, noradrenaline, tamsulosin, phentolamine); not shown: EGFP, C-terminal, kept

[2] = biological target: T1, purified α1AAR fused at the C-terminus …; assay: flow cytometry on cells; on-yeast titration as a1, in the presence of 500 μM oxymetazoline; settings: one partner purified
[3] = biological target: T2, α1AAR (Homo sapiens, UniProt P35348)
T2 sequence (P35348 1-466): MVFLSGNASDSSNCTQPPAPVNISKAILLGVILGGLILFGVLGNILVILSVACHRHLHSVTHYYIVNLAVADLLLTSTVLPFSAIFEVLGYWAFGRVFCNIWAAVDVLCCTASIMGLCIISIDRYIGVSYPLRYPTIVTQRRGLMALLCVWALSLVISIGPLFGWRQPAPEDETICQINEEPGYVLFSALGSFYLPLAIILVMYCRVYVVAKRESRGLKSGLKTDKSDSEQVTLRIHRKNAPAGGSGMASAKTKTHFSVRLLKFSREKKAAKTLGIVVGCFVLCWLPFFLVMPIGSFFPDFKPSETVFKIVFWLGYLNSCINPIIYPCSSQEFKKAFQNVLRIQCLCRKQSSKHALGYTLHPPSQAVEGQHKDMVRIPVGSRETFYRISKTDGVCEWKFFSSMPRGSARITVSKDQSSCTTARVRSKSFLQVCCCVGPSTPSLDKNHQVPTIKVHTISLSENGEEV

[4] = biological target: T3, α1AAR (Homo sapiens, UniProt P35348); assay: [3H]prazosin radioligand binding, Sf9 membranes
T3 sequence (P35348 1-370): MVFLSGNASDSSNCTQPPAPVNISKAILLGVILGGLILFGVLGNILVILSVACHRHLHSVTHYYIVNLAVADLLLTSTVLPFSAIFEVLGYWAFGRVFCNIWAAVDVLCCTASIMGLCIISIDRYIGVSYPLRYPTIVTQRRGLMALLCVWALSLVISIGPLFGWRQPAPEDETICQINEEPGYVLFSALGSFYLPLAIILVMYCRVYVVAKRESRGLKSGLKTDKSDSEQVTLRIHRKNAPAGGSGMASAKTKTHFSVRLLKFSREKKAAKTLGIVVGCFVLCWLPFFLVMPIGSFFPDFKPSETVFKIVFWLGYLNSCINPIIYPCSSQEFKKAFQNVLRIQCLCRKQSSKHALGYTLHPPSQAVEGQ

[5] = biological target: T2, α1AAR; assay: Glo-sensor cAMP signaling assay with engineered Gsq protein in HEK293T cells

- Kd [1]: 38.8 nM
- Kd [2]: 37.6 nM
B1: Nb29 displayed on yeast cells (VHH)
VHH: QVQLQESGGGLVQAGGSLRLSCAASGNISAHWKMGWYRQAPGKEREFVAGIGYANTNYADSVKGRFTISRDNAKNTVYLQMNSLKPEDTAVYYCAAYSYYRDHSYWGQGTQVTVSS
notes: Expression was detected with an anti-HA antibody; also called Nb29-expressing yeast cells

B2: Nb29: synthetic nanobody (single domain antibody) that binds the extracellular vestibule of α1AAR, preferentially oxymetazoline-bound (antibody, V domains shown)
VH: QVQLQESGGGLVQAGGSLRLSCAASGNISAHWKMGWYRQAPGKEREFVAGIGYANTNYADSVKGRFTISRDNAKNTVYLQMNSLKPEDTAVYYCAAYSYYRDHSYWGQGTQVTVSS
- Ki [3]: 4.9 µM
- [3H]prazosin binding ([4]; Nb29 Log[M] -4): 69.5661% and 61.694% and 66.6796%
- [3H]prazosin binding ([4]; Nb29 Log[M] -5): 88.6049% and 105.399% and 83.0653%
- [3H]prazosin binding ([4]; Nb29 Log[M] -6): 111.871% and 107.935%
- [3H]prazosin binding ([4]; Nb29 Log[M] -7): 113.212% and 110.763% and 99.0136%
- [3H]prazosin binding ([4]; Nb29 Log[M] -8): 94.5235% and 106.273% and 100.209%
- [3H]prazosin binding ([4]; Nb29 Log[M] -9): 103.737% and 106.273%
- [3H]prazosin binding ([4]; Nb29 Log[M] -10): 99.4509% and 97.7015% and 89.1005%
- pKi ([4]; Nb29 as competitor): 4.39 ± 0.40
- agonist activity on its own [5]: no agonist activity
- effect on maximum efficacy of α1AAR activation [5]: slightly reduces
- α1AAR activation (Noradrenaline %) ([5]; Nb29 alone Log[M] -4): 8.574% and 8.426% and 7.756%
- α1AAR activation (Noradrenaline %) ([5]; Nb29 alone Log[M] -5): 10.7076% and 10.0868% and 10.3298%
- α1AAR activation (Noradrenaline %) ([5]; Nb29 alone Log[M] -6): 8.0538% and 8.0467% and 7.523%
- α1AAR activation (Noradrenaline %) ([5]; Nb29 alone Log[M] -7): 5.836% and 5.21% and 5.469%
- α1AAR activation (Noradrenaline %) ([5]; Nb29 alone Log[M] -8): 4.832% and 4.868% and 5.077%
- α1AAR activation (Noradrenaline %) ([5]; Nb29 alone Log[M] -9): 4.7489% and 4.768% and 4.504%
- α1AAR activation (Noradrenaline %) ([5]; Nb29 alone Log[M] -10): 4.612% and 4.823% and 4.852%
- α1AAR activation (Noradrenaline %) ([5]; Nb29 alone Log[M] -11): 4.776% and 4.958% and 4.729%
